Data on seven molecules can be found in paper PMC7165476 (Proceedings of the National Academy of Sciences of the …, 2020).

The Kd is the equilibrium constant for the complex coming apart.

Like-named read-outs stand apart in the source and are kept apart here.

In data set [1] the target is Transportin-1 (TNPO1), recombinant full length (human) (UniProt Q92973). Kind of data set: ITC. (In general: Isothermal titration calorimetry measures the heat released or taken up as one component is titrated into another.)
Sequence of Transportin-1 (TNPO1), recombinant full length (human) (Q92973 whole entry): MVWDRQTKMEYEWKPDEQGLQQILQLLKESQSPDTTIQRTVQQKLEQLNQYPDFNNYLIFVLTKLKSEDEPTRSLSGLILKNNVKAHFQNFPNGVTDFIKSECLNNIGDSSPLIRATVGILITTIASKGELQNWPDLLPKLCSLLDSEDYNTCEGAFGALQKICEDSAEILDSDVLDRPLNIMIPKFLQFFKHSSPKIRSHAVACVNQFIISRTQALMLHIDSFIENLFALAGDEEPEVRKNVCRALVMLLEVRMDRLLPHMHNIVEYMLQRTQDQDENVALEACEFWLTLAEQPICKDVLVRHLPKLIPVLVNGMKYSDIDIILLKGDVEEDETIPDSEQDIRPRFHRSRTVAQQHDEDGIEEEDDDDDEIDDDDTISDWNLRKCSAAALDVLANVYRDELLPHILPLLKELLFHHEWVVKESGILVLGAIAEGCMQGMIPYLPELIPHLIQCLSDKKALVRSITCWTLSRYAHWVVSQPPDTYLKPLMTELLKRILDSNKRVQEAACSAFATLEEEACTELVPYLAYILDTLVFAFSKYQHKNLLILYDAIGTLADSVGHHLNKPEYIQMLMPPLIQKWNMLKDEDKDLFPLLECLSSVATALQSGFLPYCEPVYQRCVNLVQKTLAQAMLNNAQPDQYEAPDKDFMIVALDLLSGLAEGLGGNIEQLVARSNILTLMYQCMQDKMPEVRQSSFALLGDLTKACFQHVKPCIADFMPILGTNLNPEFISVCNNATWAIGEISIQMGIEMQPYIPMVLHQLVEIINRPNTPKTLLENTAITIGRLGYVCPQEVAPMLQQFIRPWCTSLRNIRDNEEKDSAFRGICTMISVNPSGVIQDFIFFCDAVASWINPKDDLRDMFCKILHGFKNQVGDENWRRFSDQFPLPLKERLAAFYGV
Data set [2] addresses TNPO1 lacking the disordered acidic loop (TNPO1^Δloop) (human) (UniProt Q92973). Kind of data set: ITC.
In data set [3] the target is Transportin-3 (TNPO3), recombinant full length (human) (UniProt Q9Y5L0). Kind of data set: ITC.
The target in data set [4] is TNPO1 acidic loop (TNPO1^loop) (human). Kind of data set: NMR titration.
Sequence of TNPO1 acidic loop (TNPO1^loop) (human) (Q92973 whole entry): as above
The target in data set [5] is Transportin-3 (TNPO3), recombinant full length (human) (UniProt Q9Y5L0). Kind of data set: ITC. The source holds these as a separate data set.
The target in data set [6] is T1, CIRBP RGG (CIRBPRGG) (Homo sapiens, UniProt Q14011 68-137).
T1 sequence: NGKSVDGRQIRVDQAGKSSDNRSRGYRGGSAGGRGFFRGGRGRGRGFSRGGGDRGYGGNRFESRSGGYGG
Description: NMR.

Data set [7] addresses T2, Transportin-3 (TNPO3), recombinant full length (human, UniProt Q9Y5L0 1-923).
T2 sequence (looked up): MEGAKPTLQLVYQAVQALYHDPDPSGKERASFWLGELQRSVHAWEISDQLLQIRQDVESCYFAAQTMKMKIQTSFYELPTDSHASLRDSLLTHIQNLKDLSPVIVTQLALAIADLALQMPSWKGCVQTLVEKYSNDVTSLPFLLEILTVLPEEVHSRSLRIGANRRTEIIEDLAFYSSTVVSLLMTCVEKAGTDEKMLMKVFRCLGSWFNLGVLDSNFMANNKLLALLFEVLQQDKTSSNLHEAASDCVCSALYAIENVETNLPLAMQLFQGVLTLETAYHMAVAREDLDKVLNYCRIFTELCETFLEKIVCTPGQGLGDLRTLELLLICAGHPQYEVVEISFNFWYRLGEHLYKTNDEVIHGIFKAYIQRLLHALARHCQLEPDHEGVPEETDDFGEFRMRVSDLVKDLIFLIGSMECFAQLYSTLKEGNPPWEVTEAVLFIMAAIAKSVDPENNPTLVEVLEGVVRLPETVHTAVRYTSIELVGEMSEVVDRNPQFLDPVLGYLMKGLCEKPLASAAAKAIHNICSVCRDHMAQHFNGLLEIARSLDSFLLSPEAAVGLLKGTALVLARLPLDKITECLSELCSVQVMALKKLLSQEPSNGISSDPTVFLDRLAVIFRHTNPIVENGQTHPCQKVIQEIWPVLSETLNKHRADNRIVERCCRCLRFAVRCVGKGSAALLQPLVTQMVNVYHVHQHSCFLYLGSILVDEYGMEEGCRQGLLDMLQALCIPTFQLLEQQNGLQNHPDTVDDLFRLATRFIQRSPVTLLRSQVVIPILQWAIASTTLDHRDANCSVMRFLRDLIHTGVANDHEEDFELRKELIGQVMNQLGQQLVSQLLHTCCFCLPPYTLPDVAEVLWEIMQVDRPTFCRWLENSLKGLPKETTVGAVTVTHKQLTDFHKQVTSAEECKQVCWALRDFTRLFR
Description: ITC.

Sequence of TNPO1 lacking the disordered acidic loop (TNPO1^Δloop) (human) (Q92973 whole entry, stated change not applied): as the sequence (Q92973 whole entry) above

Take “CIRBP RG/RGG-rich region (CIRBP^RGG) (domain or fragment)”: the Kd in data set [1] was determined as 75 nM; in data set [2], 364 nM; in data set [3], 584 nM; in data set [4] it was 57000 nM; in data set [5], 589 nM. For the same molecule, the figures for the dH in data set [1], in data set [2] and in data set [3] were -11.3 kcal⋅mol^−1, -22.3 kcal⋅mol^−1 and -27 kcal⋅mol^−1, respectively.
On to “PY-NLS of FUS (FUS^PY-NLS) (domain or fragment)”, for which, in data set [1], the dissociation constant Kd is 48 nM and the dH was -21.9 kcal⋅mol^−1. In data set [2], this molecule displayed a Kd of 62 nM and a dH of -20.6 kcal⋅mol^−1.
As to “CIRBP C-terminal RSY-rich region (CIRBP^RSY) (domain or fragment)”, the results for the dissociation constant (Kd) in data set [1], in data set [2] and in data set [3] were 7800 nM, 8080 nM and 114 nM, respectively. For the same molecule, the values for the dH in data set [1], in data set [2] and in data set [3] were -10 kcal⋅mol^−1, -19 kcal⋅mol^−1 and -34.9 kcal⋅mol^−1, respectively.
On to “PRMT1-methylated CIRBP RG/RGG region (meCIRBP^RGG) (domain or fragment)”, for which, in data set [3], the Kd was found to be 3300 nM and the dH was -23 kcal⋅mol^−1.
Take “Cold-inducible RNA-binding protein (CIRBP), full length, untagged (from UniProt Q14011 1-172) (natural protein)”: in data set [1], the Kd came out at 741 nM and the dH is -21 kcal⋅mol^−1.
For UGUGUGUGUGUGUGUGUGUGUGUG (ssRNA) [(UG)12 RNA], the binding result in data set [6] is given as “binds”.

B1: Cold-inducible RNA-binding protein (CIRBP), full length, untagged (natural protein, human, UniProt Q14011 1-172, looked up)
chain: MASDEGKLFVGGLSFDTNEQSLEQVFSKYGQISEVVVVKDRETQRSRGFGFVTFENIDDAKDAMMAMNGKSVDGRQIRVDQAGKSSDNRSRGYRGGSAGGRGFFRGGRGRGRGFSRGGGDRGYGGNRFESRSGGYGGSRDYYSSRSQSGGYSDRSSGGSYRDSYDSYATHNE
With B1, in data set [7], the equilibrium dissociation constant (Kd) amounted to 289 nM and the dH is -58.6 kcal⋅mol^−1.
